Assays:
H3K9 core mononucleosome = assay: native gel or EMSA
[1] = biological target: H3Kc9me3 core mononucleosome; assay: native gel or EMSA
[2] = biological target: H3Kc9me3 core mononucleosome; assay: fluorescence polarisation

Suv39/Clr4 (full length wild-type), sequence (O60016 whole entry): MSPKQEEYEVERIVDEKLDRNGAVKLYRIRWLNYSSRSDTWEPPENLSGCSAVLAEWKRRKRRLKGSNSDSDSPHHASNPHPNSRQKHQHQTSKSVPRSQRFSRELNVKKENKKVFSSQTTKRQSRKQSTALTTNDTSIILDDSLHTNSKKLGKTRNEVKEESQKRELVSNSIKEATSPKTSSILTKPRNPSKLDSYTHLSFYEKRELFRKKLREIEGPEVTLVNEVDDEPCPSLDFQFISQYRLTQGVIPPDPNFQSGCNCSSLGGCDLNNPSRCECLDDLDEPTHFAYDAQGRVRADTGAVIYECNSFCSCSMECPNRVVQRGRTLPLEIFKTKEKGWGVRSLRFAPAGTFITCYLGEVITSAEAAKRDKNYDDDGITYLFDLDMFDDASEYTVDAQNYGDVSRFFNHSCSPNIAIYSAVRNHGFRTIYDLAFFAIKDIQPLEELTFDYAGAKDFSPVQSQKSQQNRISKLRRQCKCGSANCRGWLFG

## Suv39/Clr4 (full length wild-type) (from UniProt O60016 1-490) (enzyme)
H3K9 core mononucleosome
  K1/2: 1.8 µM
[1]
  K1/2: 1.5 µM
[2]
  fold sensitivity of the FP increase to the H3Kc9me3 mark over the H3K9 control: > 25 fold

Reference: paper PMC3752401
